T1: aPKC KD-PBM (Drosophila, UniProt A1Z9X0 259-606)
T1 construct: From pBH; also called his aPKC kinase domain-PBM; aPKC kinase domain–PBM; source: E. coli BL21 (DE3), his-purified (Ni-NTA) partially under denaturing conditions (8 M urea)
T1 sequence (looked up): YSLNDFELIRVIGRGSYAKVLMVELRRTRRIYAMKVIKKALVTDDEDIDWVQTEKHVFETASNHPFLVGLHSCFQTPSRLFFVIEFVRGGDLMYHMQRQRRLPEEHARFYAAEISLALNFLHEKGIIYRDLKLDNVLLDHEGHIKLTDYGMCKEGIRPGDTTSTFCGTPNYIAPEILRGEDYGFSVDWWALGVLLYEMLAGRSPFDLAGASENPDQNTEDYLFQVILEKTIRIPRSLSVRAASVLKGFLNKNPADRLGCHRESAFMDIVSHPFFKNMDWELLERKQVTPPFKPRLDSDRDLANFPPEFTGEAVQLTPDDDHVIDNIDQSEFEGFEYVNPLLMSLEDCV

T2: Par complex (his-Par-6, aPKC) (Drosophila, UniProt O97111 1-351; A1Z9X0 1-606)
T2 construct: Par-6, Drosophila, residues 1-351; atypical protein kinase C (aPKC), Drosophila, residues 1-606; Construct as in PMID 32084408; also called full Par complex; source: HEK 293F, transfected (pCMV), purified (Ni-NTA or cobalt resin, Source Q anion exchange)
T2 sequence (looked up) 1: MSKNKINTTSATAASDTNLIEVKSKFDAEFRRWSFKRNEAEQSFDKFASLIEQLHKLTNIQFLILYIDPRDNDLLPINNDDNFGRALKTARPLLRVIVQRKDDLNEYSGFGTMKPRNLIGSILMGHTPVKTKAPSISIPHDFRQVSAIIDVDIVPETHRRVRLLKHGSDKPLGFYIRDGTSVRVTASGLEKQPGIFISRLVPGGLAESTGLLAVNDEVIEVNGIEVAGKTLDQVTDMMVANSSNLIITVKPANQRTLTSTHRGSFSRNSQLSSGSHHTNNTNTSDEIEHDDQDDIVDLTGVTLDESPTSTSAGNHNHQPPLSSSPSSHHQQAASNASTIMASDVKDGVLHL
T2 sequence (looked up) 2: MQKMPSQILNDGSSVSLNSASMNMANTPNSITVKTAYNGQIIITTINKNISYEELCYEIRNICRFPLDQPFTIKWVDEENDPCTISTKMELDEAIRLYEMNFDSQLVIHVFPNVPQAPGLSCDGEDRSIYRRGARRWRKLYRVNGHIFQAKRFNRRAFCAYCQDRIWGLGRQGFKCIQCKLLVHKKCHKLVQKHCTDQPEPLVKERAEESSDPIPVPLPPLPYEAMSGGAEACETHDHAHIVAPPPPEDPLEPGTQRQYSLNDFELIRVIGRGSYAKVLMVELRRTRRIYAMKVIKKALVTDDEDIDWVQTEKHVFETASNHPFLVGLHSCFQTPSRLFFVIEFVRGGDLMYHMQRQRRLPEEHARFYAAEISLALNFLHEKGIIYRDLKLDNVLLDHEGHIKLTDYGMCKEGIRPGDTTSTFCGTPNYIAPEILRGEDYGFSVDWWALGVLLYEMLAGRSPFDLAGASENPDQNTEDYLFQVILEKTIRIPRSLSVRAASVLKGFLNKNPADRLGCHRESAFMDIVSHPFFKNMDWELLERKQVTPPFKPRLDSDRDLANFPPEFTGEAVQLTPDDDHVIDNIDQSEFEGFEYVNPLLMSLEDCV


Tests used:
Settings in all cases: both partners purified
aPKC KD-PBM [1] = biological target: T1, aPKC KD-PBM; assay: supernatant depletion assay; GST-fused protein on glutathione agarose resin (solid phase, 'ligand'); soluble protein ('receptor') left in the supernatant at equilibrium quantified on a Coomassie gel; 1 h at 20 °C; 10 mM Hepes pH 7.5, 100 mM NaCl, 1 mM DTT, 200 μM ATP, 5 mM MgCl2, 0.1% Tween-20; single-site equation; 'apparent' for Par-3 variants that could bind more than one Par complex; ATP replaced with ADP in one …
[2] = biological target: T2, Par complex (his-Par-6, aPKC); assay: as above
aPKC KD-PBM [3] = biological target: T1, aPKC KD-PBM; assay: pull-down; competition: GST-Par-3 PDZ2 or PDZ3 on glutathione resin with aPKC KD-PBM and the other PDZ domain as soluble competitor; room temperature, 30 to 60 min; 10 mM Hepes pH 7.5, 100 mM NaCl, 1 mM DTT, 200 μM ATP, 5 mM MgCl2, 0.1% Tween-20; Coomassie gel
[4] = biological target: T2, Par complex (his-Par-6, aPKC); assay: supernatant depletion assay; MBP-Par-3 (C-terminal his-tag, his-purified) on amylose resin (solid phase); soluble protein left in the supernatant quantified on a Coomassie gel; 10 min at 20 °C; 10 mM Hepes pH 7.5, 100 mM NaCl, 1 mM DTT, 200 μM ATP, 5 mM MgCl2, 0.1% Tween-20; 'apparent'

Binder	binding result (aPKC KD-PBM [1])	binding result [2]	binding result (aPKC KD-PBM [3])	binding result [4]
GST-Par-3 BR-PDZ2-3 (domain or fragment, Drosophila, UniProt O96782 426-741, looked up, Par-3 (Bazooka), Drosophila, residues 426-741; From pGEX) PVGTSLQVANTRKLGRKIQIMLKKGPNGLGFSVTTRDNPAGAHCPIYIKNILPRGAAIEDGRLKPGDRLLEVDGTPMTGKTQTDVVAILRGMPAGATVRIVVSRQQELAEQADQPAEKSAGVAVAPSVAPPAVPAAAAPAPPIPVQKSSSARSLFTHQQQSQLNESQHFIDAGSESAASNDSLPPSSNSWHSREELTLHIPVHDTEKAGLGVSVKGKTCSNLNASGSSASSGSNGLMKHDGDLGIFVKNVIHGGAASRDGRLRMNDQLLSVNGVSLRGQNNAEAMETLRRAMVNTPGKHPGTITLLVGRKILRSAS	binds	binds	–	–
GST-Par-3 PDZ2 (domain or fragment, Drosophila, UniProt O96782 444-533, looked up, Par-3 (Bazooka), Drosophila, residues 444-533; From pGEX; also called GST fused Par-3 PDZ2) QIMLKKGPNGLGFSVTTRDNPAGAHCPIYIKNILPRGAAIEDGRLKPGDRLLEVDGTPMTGKTQTDVVAILRGMPAGATVRIVVSRQQEL	binds	binds	–	–
Par-3 PDZ2 (his-purified, soluble) (domain or fragment, Drosophila, UniProt O96782 444-533, looked up, Par-3 (Bazooka), Drosophila, residues 444-533; From pET19; also called soluble PDZ2; source: E. coli BL21 (DE3), his-purified) QIMLKKGPNGLGFSVTTRDNPAGAHCPIYIKNILPRGAAIEDGRLKPGDRLLEVDGTPMTGKTQTDVVAILRGMPAGATVRIVVSRQQEL	–	–	binds	–
GST-Par-3 BR-PDZ2 (domain or fragment, Drosophila, UniProt O96782 426-533, looked up, Par-3 (Bazooka), Drosophila, residues 426-533 (basic region and PDZ2); From pGEX) PVGTSLQVANTRKLGRKIQIMLKKGPNGLGFSVTTRDNPAGAHCPIYIKNILPRGAAIEDGRLKPGDRLLEVDGTPMTGKTQTDVVAILRGMPAGATVRIVVSRQQEL	binds	binds	–	–
MBP-Par-3 PDZ1-APMΔPDZ2 (domain or fragment, Drosophila, UniProt O96782 309-987, looked up, Par-3 (Bazooka), Drosophila, residues 309-987 with residues 437-533 deleted; From pMAL; construct as in PMID 32084408; not shown: MBP, N-terminal, kept; His tag, C-terminal, kept) DGEMLLIINEYGSPLGLTALPDKEHGGGLLVQHVEPGSRAERGQLRRDDRILEINGIKLIGLTESQVQEQLRRALESSELRVRVLRGDRNRRQQRDSKVADMVEVATVSPTRKPHAAPVGTSLQVANTAEQADQPAEKSAGVAVAPSVAPPAVPAAAAPAPPIPVQKSSSARSLFTHQQQSQLNESQHFIDAGSESAASNDSLPPSSNSWHSREELTLHIPVHDTEKAGLGVSVKGKTCSNLNASGSSASSGSNGLMKHDGDLGIFVKNVIHGGAASRDGRLRMNDQLLSVNGVSLRGQNNAEAMETLRRAMVNTPGKHPGTITLLVGRKILRSASSSDILDHSNSHSHSHSNSSGGSNSNGSGNNNNSSSNASDNSGATVIYLSPEKREQRCNGGGGGGSAGNEMNRWSNPVLDRLTGGICSSNSAQPSSQQSHQQQPHPSQQQQQQRRLPAAPVCSSAALRNESYYMATNDNWSPAQMHLMTAHGNTALLIEDDAEPMSPTLPARPHDGQHCNTSSANPSQNLAVGNQGPPINTVPGTPSTSSNFDATYSSQLSLETNSGVEHFSRDALGRRSISEKHHA	–	–	–	binds
GST-Par-3 PDZ1-3 (domain or fragment, Drosophila, UniProt O96782 309-741, looked up, Par-3 (Bazooka), Drosophila, residues 309-741; From pGEX; also called Par-3 fragment containing its three PDZ domains) DGEMLLIINEYGSPLGLTALPDKEHGGGLLVQHVEPGSRAERGQLRRDDRILEINGIKLIGLTESQVQEQLRRALESSELRVRVLRGDRNRRQQRDSKVADMVEVATVSPTRKPHAAPVGTSLQVANTRKLGRKIQIMLKKGPNGLGFSVTTRDNPAGAHCPIYIKNILPRGAAIEDGRLKPGDRLLEVDGTPMTGKTQTDVVAILRGMPAGATVRIVVSRQQELAEQADQPAEKSAGVAVAPSVAPPAVPAAAAPAPPIPVQKSSSARSLFTHQQQSQLNESQHFIDAGSESAASNDSLPPSSNSWHSREELTLHIPVHDTEKAGLGVSVKGKTCSNLNASGSSASSGSNGLMKHDGDLGIFVKNVIHGGAASRDGRLRMNDQLLSVNGVSLRGQNNAEAMETLRRAMVNTPGKHPGTITLLVGRKILRSAS	–	binds	–	–
GST-Par-3 PDZ2-3 (domain or fragment, Drosophila, UniProt O96782 444-741, looked up, Par-3 (Bazooka), Drosophila, residues 444-741; From pGEX) QIMLKKGPNGLGFSVTTRDNPAGAHCPIYIKNILPRGAAIEDGRLKPGDRLLEVDGTPMTGKTQTDVVAILRGMPAGATVRIVVSRQQELAEQADQPAEKSAGVAVAPSVAPPAVPAAAAPAPPIPVQKSSSARSLFTHQQQSQLNESQHFIDAGSESAASNDSLPPSSNSWHSREELTLHIPVHDTEKAGLGVSVKGKTCSNLNASGSSASSGSNGLMKHDGDLGIFVKNVIHGGAASRDGRLRMNDQLLSVNGVSLRGQNNAEAMETLRRAMVNTPGKHPGTITLLVGRKILRSAS	binds	binds	–	–

The remaining lines, values ahead:

binding result (aPKC KD-PBM [1])	binding result [2]	binding result (aPKC KD-PBM [3])	binding result [4]	Binder
binds	binds	–	–	GST-Par-3 PDZ1-2 (domain or fragment, Drosophila, UniProt O96782 309-533, looked up, Par-3 (Bazooka), Drosophila, residues 309-533; From pGEX) DGEMLLIINEYGSPLGLTALPDKEHGGGLLVQHVEPGSRAERGQLRRDDRILEINGIKLIGLTESQVQEQLRRALESSELRVRVLRGDRNRRQQRDSKVADMVEVATVSPTRKPHAAPVGTSLQVANTRKLGRKIQIMLKKGPNGLGFSVTTRDNPAGAHCPIYIKNILPRGAAIEDGRLKPGDRLLEVDGTPMTGKTQTDVVAILRGMPAGATVRIVVSRQQEL
binds	binds	–	–	GST-Par-3 PDZ3 (domain or fragment, Drosophila, UniProt O96782 616-741, looked up, Par-3 (Bazooka), Drosophila, residues 616-741; From pGEX; also called GST fused Par-3 PDZ3) HSREELTLHIPVHDTEKAGLGVSVKGKTCSNLNASGSSASSGSNGLMKHDGDLGIFVKNVIHGGAASRDGRLRMNDQLLSVNGVSLRGQNNAEAMETLRRAMVNTPGKHPGTITLLVGRKILRSAS
–	–	binds	–	Par-3 PDZ3 (his-purified, soluble) (domain or fragment, Drosophila, UniProt O96782 616-741, looked up, Par-3 (Bazooka), Drosophila, residues 616-741; From pET19; source: E. coli BL21 (DE3), his-purified) HSREELTLHIPVHDTEKAGLGVSVKGKTCSNLNASGSSASSGSNGLMKHDGDLGIFVKNVIHGGAASRDGRLRMNDQLLSVNGVSLRGQNNAEAMETLRRAMVNTPGKHPGTITLLVGRKILRSAS

Source: publication PMC9352551, “Energetic determinants of animal cell polarity regulator Par-3 interaction with the Par complex” (The Journal of Biological Chemistry, 2022)
